Measured values taken from patent publication US20070105771A1 (Y S THERAPEUTICS, published 2007).

Key:
[1] = biological target: T1, human CD26-derived 13 mer peptide 59 (human); assay: peptide microarray
T1 peptide: LAYVWNNDIYVKI
Experimental: (§1) The overnight incubation was followed by three washings with each of PBS buffer pH 7.5 and water. The microarrays were then scanned using ArrayWorx-Microarray Scanner.
(§2) The SPOT recognition software package ArrayPro was used for data analysis. The mean of signal intensities from 3 identical subarrays on each microarray image was used for data evaluation.

[2] = biological target: T2, human CD26-derived 13 mer peptide 110 (human); assay: peptide microarray
T2 peptide: VKFFVVNTDSLSS
Experimental: as §1, §2

[3] = biological target: T3, human CD26-derived 13 mer peptide 73 (human); assay: peptide microarray
T3 peptide: DIIYNGITDWVYE
Experimental: as §1, §2

[4] = biological target: T4, human CD26-derived 13 mer peptide 86 (human); assay: peptide microarray
T4 peptide: PNGTFLAYAQFND
Experimental: as §1, §2

[5] = biological target: T5, human CD26-derived 13 mer peptide 75 (human); assay: peptide microarray
T5 peptide: NGITDWVYEEEVF
Experimental: as §1, §2

[6] = biological target: T6, human CD26-derived 13 mer peptide 95 (human); assay: peptide microarray
T6 peptide: IEYSFYSDESLQY
Experimental: as §1, §2

[7] = biological target: T7, human CD26-derived 13 mer peptide 20 (human); assay: peptide microarray
T7 peptide: SSVFLENSTFDEF
Experimental: as §1, §2

[8] = biological target: T8, human CD26-derived 13 mer peptide 26 (human); assay: peptide microarray
T8 peptide: FGHSINDYSISPD
Experimental: as §1, §2

[9] = biological target: T9, human CD26-derived 13 mer peptide 15 (human); assay: peptide microarray
T9 peptide: ILVFNAEYGNSSV
Experimental: as §1, §2

[10] = biological target: T10, human CD26-derived 13 mer peptide 8 (human); assay: peptide microarray
T10 peptide: WISDHEYLYKQEN
Experimental: as §1, §2

[11] = biological target: T11, human CD26-derived 13 mer peptide 90 (human); assay: peptide microarray
T11 peptide: AQFNDTEVPLIEY
Experimental: as §1, §2

[12] = biological target: T12, human CD26-derived 13 mer peptide 57 (human); assay: peptide microarray
T12 peptide: VGHKLAYVWNNDI
Experimental: as §1, §2

[13] = biological target: T13, human CD26-derived 13 mer peptide 52 (human); assay: peptide microarray
T13 peptide: NNTQWVTWSPVGH
Experimental: as §1, §2

[14] = biological target: T14, human CD26-derived 13 mer peptide 107 (human); assay: peptide microarray
T14 peptide: GAVNPTVKFFVVN
Experimental: as §1, §2

[15] = biological target: T15, human CD26-derived 13 mer peptide 116 (human); assay: peptide microarray
T15 peptide: SVTNATSIQITAP
Experimental: as §1, §2

[16] = biological target: T16, human CD26-derived 13 mer peptide 48 (human); assay: peptide microarray
T16 peptide: LITEERIPNNTQW
Experimental: as §1, §2

[17] = biological target: T17, human CD26-derived 13 mer peptide 105 (human); assay: peptide microarray
T17 peptide: YPKAGAVNPTVKF
Experimental: as §1, §2

[18] = biological target: T18, human CD26-derived 13 mer peptide 67 (human); assay: peptide microarray
T18 construct: also called LPSYRITWTGKED
T18 peptide: LPSYRITWTGKED
Experimental: as §1, §2

[19] = biological target: T19, human CD26-derived 13 mer peptide 9 (human); assay: peptide microarray
T19 peptide: SDHEYLYKQENNI
Experimental: as §1, §2

[20] = biological target: T20, human CD26-derived 13 mer peptide 99 (human); assay: peptide microarray
T20 peptide: ESLQYPKTVRVPY
Experimental: as §1, §2

[21] = biological target: T21, human CD26-derived 13 mer peptide 96 (human); assay: peptide microarray
T21 peptide: YSFYSDESLQYPK
Experimental: as §1, §2

[22] = biological target: T22, human CD26-derived 13 mer peptide 64 (human); assay: peptide microarray
T22 peptide: VKIEPNLPSYRIT
Experimental: as §1, §2

[23] = biological target: T23, human CD26-derived 13 mer peptide 77 (human); assay: peptide microarray
T23 peptide: DWVYEEEVFSAYS
Experimental: as §1, §2

[24] = biological target: T24, human CD26-derived 13 mer peptide 123 (human); assay: peptide microarray
T24 peptide: SMLIGDHYLCDVT
Experimental: as §1, §2

[25] = biological target: T25, human CD26-derived 13 mer peptide 133 (human); assay: peptide microarray
T25 peptide: SLQWLRRIQNYSV
Experimental: as §1, §2

[26] = biological target: T26, human CD26-derived 13 mer peptide 65 (human); assay: peptide microarray
T26 peptide: IEPNLPSYRITWT
Experimental: as §1, §2

[27] = biological target: T27, human CD26-derived 13 mer peptide 22 (human); assay: peptide microarray
T27 peptide: LENSTFDEFGHSI
Experimental: as §1, §2

[28] = biological target: T28, human CD26-derived 13 mer peptide 36 (human); assay: peptide microarray
T28 peptide: YNYVKQWRHSYTA
Experimental: as §1, §2

[29] = biological target: T29, human CD26-derived 13 mer peptide 66 (human); assay: peptide microarray
T29 peptide: PNLPSYRITWTGK
Experimental: as §1, §2

[30] = biological target: T30, human CD26-derived 13 mer peptide 42 (human); assay: peptide microarray
T30 peptide: ASYDIYDLNKRQL
Experimental: as §1, §2

[31] = biological target: T31, human CD26-derived 13 mer peptide 35 (human); assay: peptide microarray
T31 peptide: LEYNYVKQWRHSY
Experimental: as §1, §2

[32] = biological target: T32, human CD26-derived 13 mer peptide 23 (human); assay: peptide microarray
T32 peptide: NSTFDEFGHSIND
Experimental: as §1, §2

[33] = biological target: T33, human CD26-derived 13 mer peptide 94 (human); assay: peptide microarray
T33 peptide: PLIEYSFYSDESL
Experimental: as §1, §2

[34] = biological target: T34, human CD26-derived 13 mer peptide 115 (human); assay: peptide microarray
T34 peptide: LSSVTNATSIQIT
Experimental: as §1, §2

[35] = biological target: T35, human CD26-derived 13 mer peptide 37 (human); assay: peptide microarray
T35 peptide: YVKQWRHSYTASY
Experimental: as §1, §2

[36] = biological target: T36, human CD26-derived 13 mer peptide 41 (human); assay: peptide microarray
T36 peptide: YTASYDIYDLNKR
Experimental: as §1, §2

[37] = biological target: T37, human CD26-derived 13 mer peptide 74 (human); assay: peptide microarray
T37 peptide: IYNGITDWVYEEE
Experimental: as §1, §2

[38] = biological target: T38, human CD26-derived 13 mer peptide 51 (human); assay: peptide microarray
T38 peptide: IPNNTQWVTWSPV
Experimental: as §1, §2

[39] = biological target: T39, human CD26-derived 13 mer peptide 2 (human); assay: peptide microarray
T39 peptide: KNTYRLKLYSLRW
Experimental: as §1, §2

[40] = biological target: T40, human CD26-derived 13 mer peptide 39 (human); assay: peptide microarray
T40 peptide: WRHSYTASYDIYD
Experimental: as §1, §2

[41] = biological target: T41, Purified recombinant human CD26 (rhDipeptidyl peptidase IV), R&D Systems CAT #1180-SE (human, UniProt P27487 29-766); assay: SPR (Biacore)
T41 construct: Bought recombinant protein; also called hu-CD26; soluble human CD26
T41 sequence (P27487 29-766 limits assumed): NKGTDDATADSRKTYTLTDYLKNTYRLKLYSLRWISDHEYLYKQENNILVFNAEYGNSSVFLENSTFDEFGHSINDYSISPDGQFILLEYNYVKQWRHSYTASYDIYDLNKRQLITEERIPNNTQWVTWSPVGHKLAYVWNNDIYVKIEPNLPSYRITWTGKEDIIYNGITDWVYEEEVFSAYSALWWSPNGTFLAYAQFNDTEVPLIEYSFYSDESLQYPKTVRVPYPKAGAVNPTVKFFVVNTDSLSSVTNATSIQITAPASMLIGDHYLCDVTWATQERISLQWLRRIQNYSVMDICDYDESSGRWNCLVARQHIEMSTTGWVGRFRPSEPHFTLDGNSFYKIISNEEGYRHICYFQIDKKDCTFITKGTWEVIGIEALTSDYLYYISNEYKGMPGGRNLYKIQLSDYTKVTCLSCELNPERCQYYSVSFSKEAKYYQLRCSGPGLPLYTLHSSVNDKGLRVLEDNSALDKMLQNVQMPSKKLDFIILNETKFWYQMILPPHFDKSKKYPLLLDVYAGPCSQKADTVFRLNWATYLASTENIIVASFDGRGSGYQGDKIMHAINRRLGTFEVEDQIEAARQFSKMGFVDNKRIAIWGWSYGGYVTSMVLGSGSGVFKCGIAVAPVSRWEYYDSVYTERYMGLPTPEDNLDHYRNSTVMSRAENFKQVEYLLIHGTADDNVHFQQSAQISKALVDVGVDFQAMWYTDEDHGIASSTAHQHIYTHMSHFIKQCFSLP

- Mean Signal Value [1]: 0.683
- Mean Signal Value [2]: 0.024
- Mean Signal Value [3]: 33.6
- Mean Signal Value [4]: 0.524
- Mean Signal Value [5]: 9.38
- Mean Signal Value [6]: 6.14
- Mean Signal Value [7]: 0.0577
- Mean Signal Value [8]: 0.0337
- Mean Signal Value [9]: 0
- Mean Signal Value [10]: 0.736
- Mean Signal Value [11]: 0
- Mean Signal Value [12]: 9.67
- Mean Signal Value [13]: 0.12
- Mean Signal Value [14]: 10.6
- Mean Signal Value [15]: 0.0385
- Mean Signal Value [16]: 12.1
- Mean Signal Value [17]: 0
- Mean Signal Value [18]: 0.00962
- Mean Signal Value [19]: 0.0673
- Mean Signal Value [20]: 0.0865
- Mean Signal Value [21]: 0.0144
- Mean Signal Value [22]: 0.438
- Mean Signal Value [23]: 13.7
- Mean Signal Value [24]: 0.438
- Mean Signal Value [25]: 6.51
- Mean Signal Value [26]: 40.8
- Mean Signal Value [27]: 0.0192
- Mean Signal Value [28]: 28.2
- Mean Signal Value [29]: 0.111
- Mean Signal Value [30]: 0
- Mean Signal Value [31]: 84.7
- Mean Signal Value [32]: 0.00481
- Mean Signal Value [33]: 0.0433
- Mean Signal Value [34]: 0.0673
- Mean Signal Value [35]: 98.2
- Mean Signal Value [36]: 0.0673
- Mean Signal Value [37]: 0
- Mean Signal Value [38]: 0.856
- Mean Signal Value [39]: 16.5
- Mean Signal Value [40]: 55.7
- Kd [41]: 0.244 nM
- koff [41]: 6.63e-05 s⁻¹
- kon [41]: 272000 M⁻¹ s⁻¹
B1: rhuMAb 411 (antibody, human IgG1, kappa, V domains shown)
VH: EVQLVESGAGVKQPGGTLRLTCTASGFSLTTYGVHWVRQAPGKGLEWVGVIWGDGRTDYDAAFMSRVTISKDTSKSTVYLQMNSLRAEDTAVYYCMRNRHDWFDYWGQGTTVTVSS
VL: DILLTQSPSSLSATPGERATITCRASQGIRNNLNWYQQKPGQAPRLLIYYSSNLQSGVPSRFSGSGSGTDFTLTISRLQPEDVAAYYCQQSIKLPFTFGSGTKVEIKR
notes: also called X411
